How the values were obtained:
[1] = target: T1, amylospheroid 42 (Homo sapiens (Human), UniProt P05067 672-713); test: SPR, ratio of Kd values (40Aβ against 42ASPD)
T1 construct: also called 42ASPD; ASPD
Description: (§1) 10 μg/ml amylospheroid (42ASPD), amyloid β monomer (42Aβ, 40Aβ), and Aβ fibril (fibril) prepared from 40Aβ were coupled to CM5 sensor chips of BIACore 3000 (BIAcore) at a concentration of […] in 50 mM acetate buffer. With the use of an antibody solution subjected to two-fold serial dilution from the maximal concentration of 100 nM in a buffer (10 mM HEPES, pH 7.4, 0.15 M NaCl, 3 mM EDTA, 0.005% Surfactant P20), the association rate constant and the dissociation rate constant were determined. With the use of these constants, the dissociation constant was calculated by the following equation.
(§2) Through the same procedure as that in Example 3(3), 42ASPD, 40Aβ (Aβ monomer), and Aβ fibril (42 fibril) prepared from 42Aβ were coupled to CM5 sensor chips, and dissociation constants of the hamster antibody haASD2, the humanized antibody huASD2, and the anti-Aβ antibody 3D6 (US 20030165496 A1) with respect to the above-described proteins were determined. […]

[2] = target: T1, amylospheroid 42; test: SPR, ratio of Kd values (42 fibril against 42ASPD)
Description: as §1, §2

[3] = target: T1, amylospheroid 42; test: SPR (BIAcore), antigen on CM5 chip, antibody in solution
Description: as §1
(§3) Through the same procedure as that in Example 3(3), 42ASPD, 40Aβ (Aβ monomer), and Aβ fibril (42 fibril) prepared from 42Aβ were coupled to CM5 sensor chips, and dissociation constants of the hamster antibody haASD2, the humanized antibody huASD2, and the anti-Aβ antibody 3D6 (US 20030165496 A1) with respect to the above-described proteins were determined. The anti-Aβ antibody 3D6 was produced as follows: synthesis genes corresponding to the mouse antibody light chain variable domain 3d6vl.aa and the synthesis gene corresponding to the heavy chain variable domain 3d6vh.aa of the same described in US 20030165496 A1 were produced by a conventional method, and were joined to the light chain constant domain and the heavy chain constant domain of a known mouse antibody, respectively, on the basis of the information of the aforementioned patent; by so doing, it was produced as a mouse IgG2b/κ molecule.

[4] = target: T2, monomeric amyloid β40-protein (Aβ1-40); test: as above
T2 construct: also called 40Aβ; Aβ1-40 monomer
T2 sequence (peptide, as listed by the source): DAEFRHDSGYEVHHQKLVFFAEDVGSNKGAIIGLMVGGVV
Description: as §1, §3

[5] = target: T3, Aβ fibril (42 fibril) prepared from 42Aβ (Homo sapiens (Human), UniProt P05067 672-713); test: as above
T3 construct: Fibrillar self-assembly of Aβ1-42; also called amyloid fibril
T3 sequence (P05067 672-713 limits assumed): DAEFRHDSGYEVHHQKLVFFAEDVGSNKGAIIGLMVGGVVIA
Description: as §1, §3

[6] = target: T4, N-terminus peptide (Aβ1-5) of the monomeric amyloid β-protein; test: competitive ELISA with 5-residue Aβ peptides, same method as Example 4
T4 construct: Synthetic 5-residue peptide
T4 peptide: DAEFR
Excerpt: Which one of Aβ five residue peptides the humanized antibody huASD2 was joined to was examined using the same method as that in Example 4.

T1 sequence (P05067 672-713 limits assumed): as above

fold higher affinity with ASPD than with amyloid β-monomer [1]: ~580 times
fold higher affinity with ASPD than with amyloid fibril [2]: ~6.4 times
Kd [3]: 0.18 nM
Kd [4]: 105 nM
Kd [5]: 1.15 nM
binding result [6]: binds
B1: humanized antibody huASD2 (antibody, V domains shown)
VH: EVQLVESGGGLVKPGGSLRLSCAASGFTFSDYFMSWVRQAPGKGLEWVGGIEIKSYFYATYYFGSVKGRFTISRDDSKNTLYLQMNSLKTEDTAVYYCTTNREVGGLDNWGQGTLVTVSS
VL: QSVLTQPSSLSASPGASASLTCTLRSGISVGGKNIYWYQQKPGSPPQYLLKYSSYSNKQLGPGVPSRFSGSKDASANAGILLISGLQSEDEADYYCSIHESNAYVFGGGTKLTVLG
notes: Humanized from haASD2; expressed from plasmids ASD2RHApG1D200 (heavy chain) and ASD2RLApLN100 (light chain); also called RHA/RLA; ASD2RHA/ASD2RLA
